Assay [1] has as its system vaginal epithelium. The assay can be described thus: Vaginal atrophy model in ovariectomised CD1 mice, local hydrogel treatment, histology. Format: in vivo, mouse. The settings on record: for cornification of vaginal epithelium (hematoxylin and eosin) / stratification of the vaginal epithelium and hyperkeratosis (hematoxylin and eosin): low and high doses, 60 days; for cornification of vaginal epithelium (hematoxylin and eosin): not in vehicle group, FIG. 8A; for stratification of the vaginal epithelium and hyperkeratosis (hematoxylin and eosin): versus vehicle only, FIG. 7B. As for the experimental part:
The mouse strain CD1 was used in this study (Charles Rivers). The mice were held in a standard housing for laboratory animals with controlled lighting (12 h/day) and temperature (25±1° C.) and were provided with food and water ab libitum. All the experimental protocols concerning animals were in line with the Guidelines of Sapienza University for the care and use of laboratory animals and were approved by the Ethical Committee of the aforesaid institution. Forty female mice were subjected to an ovariectomy for the purpose of inducing vaginal atrophy and were administered a diet of Altromin C1000 without phytoestrogens (Altromin, Lage, Germany) for the duration of the experiments. After 30 days, the mice were treated locally, introducing daily into the vaginal canal 25 μl of hydrogel loaded with KGF (10 or 30 ng/day) or with E2 (30 ng/day or 1 μg/day). A control group was treated only with hydrogel. After 60 days of treatment, the mice were killed and the vaginas were immediately explanted, fixed in formalin and processed for histological analysis.
Serial sections of the vaginal mucus obtained from four groups of mice were stained with hematoxylin/eosin, placed permanently under a glass plate and analysed histologically. The thickness and the strata of epithelial cells of the vagina were then determined in three animals for each group, in three images for each animal (10× enlargement). Mean values were obtained from five measurements of each image. For the purpose of quantifying the thickness of the vaginal epithelium, the vertical distance between the lower surface of the cells in the stratum basale and the apical surface of the cells in the stratum superficiale was measured with the aid of NIH Image J v 1.56 (National Institutes of Health, Bethesda, Md.), and denoted as thickness. To estimate the number of vaginal epithelial layers, the layer of cells covering five contiguous basal cells was counted in the sample.
Serial sections of the vaginal mucus obtained from the four groups of mice were analysed for the expression of PCNA (Proliferating Cell Nuclear Antigen, a marker of cell proliferation) by means of immunohistochemistry. The sections were elaborated using the technique of avidin-biotin-peroxidase complex (DAKO, Glostrup, Denmark) and incubated with mouse anti-A-rat-PCNA monoclonal antibody (clone P10, 1:4000) (Abcam, Cambridge, UK), which recognises proliferant cells.
All the animals enrolled in the study were fed with a special diet devoid of oestrogens (special altromin C1000 phytoestrogen-free diet). The mice subject to an ovariectomy were then divided into […]: one group received no treatment; one group received only the vehicle; one group received the vehicle+E2 30 ng/day; one group received the vehicle+E2 1 μg/day; one group received the vehicle+KGF 10 ng/day; and one group received the vehicle+KGF 30 ng/day.
The animals were killed and the vaginas removed and immediately fixed in formalin and processed for histology. Vaginal epithelium of the treated mice was analysed histologically by means of hematoxylin/eosin and was compared with the epithelium of the group of mice not subjected to ovariectomy (FIGS. 7B and 8A). The criteria adopted in order to determine the trophism of the vaginal mucus were the thickness (evidenced by counting the number of epithelial layers present and by measuring the thickness of the epithelium in μm and also by means of the ratio between area of the epithelial layer and length of the basal membrane) (FIG. 8B) and the proliferative ability of the keratinocytes (determined by means of analyses of the expression of PCNA, a marker of cell proliferation) (FIG. 9).

The test system of assay [2] is ERalpha. In words: Nucleocytoplasmic fractionation and Western blot for ER in MCF-7 cells. Format: cell-based, human. The settings on record: 5 or 30 min treatment, FIG. 4A. The method, then: The oestrogen receptor α-positive MCF-7 human breast adenocarcinoma cell line, acquired from American Type Culture Collection (no. HTB-22, ATCC-LGC Promochem, Teddington, UK), was cultured in Dulbecco's modified eagle's medium (DMEM; Invitrogen, Karlsruhe, Germany), supplemented with 10% foetal bovine serum (FBS; Invitrogen) and antibiotics. Primary cultures of human oestrogen-sensitive keratinocytes (KCs) were established from 1 cm^2 full-thickness mucosal biopsy of the vaginal vestibule. […]
MCF-7 cells untreated or treated with KGF or E2 were lysed in RIPA buffer. […] The bound antibody was detected by enhanced chemiluminescence detection reagents (Pierce Biotechnology, Inc, Rockford, Ill., USA), according to manufacturer's instructions. […] Densitometric analysis was performed using Quantity One Program (Bio-Rad Laboratories srl, Segrate, MI, Italy).
The cells were harvested in PBS and centrifuged at 2000 rpm for 5 minutes to obtain a pellet, resuspended in cellular lysis buffer containing Hepes 10 mM pH 8, 50 mM NaCl, 1 mM EDTA pH 8, 0.2% TritonX100, sucrose 500 mM and protease inhibitors, stirred, and placed in ice for 15 min. […] The efficiency of the fractionation was analysed by means of immunoblotting using an anti-β-tubulin antibody as cytoplasmic marker and an anti-lamin B antibody as nuclear marker.
(Immunoblotting shows a protein as a band on a membrane.)

Turning to `C[C@]12CC[C@@H]3c4ccc(O)cc4CC[C@H]3[C@@H]1CC[C@@H]2O` [E2, 17β-oestradiol], in assay [1], the “cornification of vaginal epithelium (hematoxylin and eosin)” value is “Cornificated vaginal epithelium was observed”; the “stratification of the vaginal epithelium and hyperkeratosis (hematoxylin and eosin)” value is “significant induction of stratification of the vaginal epithelium and hyperkeratosis”. The “redistribution of ER between cytoplasmic and nuclear fractions” value in assay [2] was “dramatic redistribution of ER in the nucleus”.

B1: keratinocyte growth factor (protein, listed as Homo sapiens)
chain: MHKWILTWILPTLLYRSCFHIICLVGTISLACNDMTPEQMATNVNCSSPERHTRSYDYMEGGDIRVRRLFCRTQWYLRIDKRGKVKGTQEMKNNYNIMEIRTVAVGIVAIKGVESEFYLAMNKEGKLYAKKECNEDCNFKELILENHYNTYASAKWTHNGGEMFVALNQKGIPVRGKKTKKEQKTAHFLPMAIT
notes: human recombinant KGF (Upstate Biotechnology)
Consider B1, for which, in assay [1] (KGF at 30 ng/25 ul and E2 at 1 ug/25 ul, FIG. 8B), the “increase in epithelial thickness, KGF versus E2” value is reported as “same increase in epithelial thickness”. Also, in assay [1], the “cornification of vaginal epithelium (hematoxylin and eosin)” value is listed as “Cornificated vaginal epithelium was observed”; the “stratification of the vaginal epithelium and hyperkeratosis (hematoxylin and eosin)” value was “significant induction of stratification of the vaginal epithelium and hyperkeratosis”. The “epithelium lubrication / mucinous (PAS-positive) cells” value in assay [1] (topical KGF, PAS staining, FIG. 9B) is “restore epithelium lubrication through stimulation of mucinous cells”. In addition, the “vaginal thinning / epithelial cell proliferation” value in assay [1] (topical KGF, ovariectomised mice, FIG. 9) is on record as “able to counteract vaginal thinning by stimulating epithelial cells proliferation”. In addition, the “redistribution of ER between cytoplasmic and nuclear fractions” value in assay [2] is “does not appear able to induce any significant redistribution of the receptor in the nucleus”.
